Experimental data published in the DeepSol protein solubility set.

Assay: soluble on expression in E. coli; label from the status in PepcDB or PDB records

Sequence	soluble on expression in E. coli
MSAASTTSTPAAAAVAPQQPESLYRVVQTLGEGAFGEVLLIVNTKNPEVAAAMKKINIANKSKDFIDNIRKEYLLQKRVSAVGHDNVIRMIGMRNDPQFYYLFLEYADGGELFDKIEPDCGMSPVFAQFYFKQLICGLKFIHDNDVVHRDIKPENLLLTGTHVLKISDFGMATLYRNKGEERLLDLSCGTIPYAAPELCAGKKYRGPPVDVWSSGIVLIAMLTGELPWDRASDASQSYMGWISNTSLDERPWKKIDVRALCMLRKIVTDKTDKRATIEQIQADPWYQHNFGQVETPNGRPLKRARNNDENITCTQQAECSAKRRHLETPNEKSTLAERQNASFSQPTKTEDLLLTQHIDMSQTNSVRKKPSEIGGFLAKISNFSVNLLQRMVCRMTRFCVVTDIRSTYQKVARASEHAGFGVRETDDYRLLVTWREVSMMVSLYTMGDIPDKPRVMVDFRRSRGDGIQFKKMFMDVRNRMHEWICTDGNNWLANLGYVPRNPQIVNGGGVNVEHSASSINVDV	not soluble
MSAATYRKLTSANLLDPVRCRLLISRNRCRVTGVKVPNPLKKVSNFFWRYRAPQAAPGHANPAYFPEADNFED	not soluble
MSAETYVMEIDGGPGDLHCMKCLKICNYLKDSYCCKKTKNMTLPQKKAESAFLMICLQRNTIELMVTALLANKKIIDSKGNCAFCRNKKQHEEEKWCAGRTKLQLFLHRIDKDELKVEEYLEKYLEIKTRNRMEQLDIVQARIVREMKAVAIAQGKSEEEVEHILAKQGRKARRMQRSEYKHAEEDNKGVRQRLAAKLVAKKSEIIERFCLAQRTVFVKADCPNVYGRTTTHISYLLE	not soluble
MSAGQRKEQKLIPVERRQIILEMVAEKGIVSIAELTDRINVSHMTIRRDLQKLEQQGAVVLVSGGVQSPGRVAHEPSHQVKTALAMTQKAAIGKLAASLVLPGSCIYLDAGTTTLAIAQHLIHMESLTVVTNDFVIANYLLDNSNCTIIHTGGAVCRENRSCVGEAAATMLCSLMIDQAFISASSWSVRGISTPAEDKVTVKRAIASASRQRVLVCDATKYGQVATWLALPLSEFDQIITDDGLPESASRALAKQDLSLLVAKNELEHHHHHH	soluble
MSAKREFSHITLASTPFKKRIDQNSLKTDSDIEKDTNIAHKCAERFNYNTNLHRKVTLSDRFELAALGYEMKAKPRTIIEKHNDCDEFHFIYRKEKKNDYGTGSPLSAGLSLSNPLPAGRGFLSPAIQNTSNQFTFSGSPRITPQKHTPVSANHKPARSIFDDIPSNIA	not soluble
MSALEETQSLCKQVDDICNNGMESVEQCNKLLDQLSKIPMSIEIIQKTNIGIKVNMMRKKVTDDAVAKRAKNIIKDWKNVVDGKSKSQDDGGAPPAKKHRKESVEEAKPEKKKIEAPYKRPEPSSRPEIVAQFASASFPPKHLENDETRLKSAQLLLSALRFGDMPQGTLDPEELAVQIEEKLYSVHRDTNKSYSAAVRSRIFNLRDKKNLALRENVLTGVVRAEKFATMTSEEMASAEIREMRDKFTKEAILEHQMSVQQGTPSDMFKCGKCGKKNCTYTQLQTRSSDEPMTTFVFCLECGNRWKFC	soluble
MSAPDLFVAHFREAVPYIRQMRGKTLVAGIDDRLLEGDTLNKLAADIGLLSQLGIRLVLIHGARHFLDRHAAAQGRTPHYCRGLRVTDETSLEQAQQFAGTVRSRFEAALCGSVSGFARAPSVPLVSGNFLTARPIGVIDGTDMEYAGVIRKTDTAALRFQLDAGNIVWLPPLGHSYSGKTFYLDMLQTAASAAVSLQAEKLVYLTLSDGISRPDGTLAETLSAQEAQSLAEHAGGETRRLISSAVAALEGGVHRVQILNGAADGSLLQELFTRNGIGTSIAKEAFVSIRQAHSGDIPHIAALIRPLEEQGILLHRSREYLENHISEFSILEHDGNLYGCAALKTFAEADCGEIACLAVSPQAQDGGYGERLLAHIIDKARGIGISRLFALSTNTGEWFAERGFQTASEDELPETRRKDYRSNGRNSHILVRRLHR	not soluble
MSAPINKVLIADDIEQECVDILKQNGIEVTVKTKQTKDELLVTLPQHDAVIVRSATKITAELLAASAGKLKLVGRAGTGVDNIDVPAASANKILVMNTPQANSRSAAELTCTLILSLSRHVPQAAASMKAGKWARKDFMGEEVYGRTLAVLGLGRIGSEVAVRLQAFGMKVIGFDPMVTKEQAEAKNIELLSLEQIWPQADYITVHVPLIKQTENLINKETLAKCKKGVRIINVARGGIVNEVDLVESLNAGHAKGAAFDVFEQEPPTFRELIDHPLVIATPHLGASTIDAQLRVASEIADNIVQYNKGTMLGVLNAREVLN	not soluble
MSAPTMRSTSILTEHLGYPPISLVDDIINAVNEIMYKCTAAMEKYLLSKSKIGEEDYGEEIKSGVAKLESLLENSVDKNFDKLELYVLRNVLRIPEEYLDANVFRLENQKDLVIVDENELKKSEEKLREKVNDVELAFKKNEMLLKRVTKVKRLLFTIRGFKQKLNELLKCKDDVQLQKILESLKPIDDTMTLLTDSLRKLYVDSESTSSTEEVEALLQRLKTNGKQNNKDFRTRYIDIRTNNVLRKLGLLGDKEDEKQSAKPDARTQAGDIVSIDIEEPQLDLLDDVL	soluble
MSAQKPGLHPRNRHQHRYDLAALCQTTPELTSFLIRTPAGEQSVDFANPQAVKALNKALLAHFYAVTHWDIPPGFLCPPVPGRADYIHHLADLLGETTGSIPAQATILDVGVGANCIYPLIGVHEYGWRFTGSEVSDAAMSSAQAIIQANTGLSRAIRLRRQKDPAAIFTGIIHKNEFYDATLCNPPFHDSAAAARAGSERKRRNLGQNKDDALNFGGQQQELWCEGGEVAFIKKMIAESQTFRRQVLWFTTLVSRGENLPPLYRALTEAGAVKVVKKEMAQGQKQSRFIAWTFMDDDQRRRFITRKRLEHHHHHH	soluble
MSASIRDAGVADLPGILAIYNDAVGNTTAIWNETPVDLANRQAWFDARARQGYPILVASDAAGEVLGYASYGDWRPFEGFRGTVEHSVYVRDDQRGKGLGVQLLQALIERARAQGLHVMVAAIESGNAASIGLHRRLGFEISGQMPQVGQKFGRWLDLTFMQLNLDPTRSAP	soluble
MSASLRQSELTIRACILYEALGKNPIQLSYYNFCTRVGNGVMGFSDFEFWYDRFSNGNHDLDYDRSVNQVPKSLPEMPKSEKTEISEIGTQVDIVELLNLMKVSQSVAQKRKVVLDSLVVQFYEGESCSRLIFNDRYIIKYEKKDQGCTVSYSDNRASSDSRKKEINVTDEDYVELCIKDLKLLMENRMVHLKTFRFAIIAVATKEFREKCMKRVEEALKTAKSLTSRTVETTGGYLLELAQLMAIFPAKNVEEIRFTGDGTIGSEQLVSLEQWKNARKFDGMRDLNVPIEHFLHFETFIVYLSVFTEDDAVKLRDMIDRSAHFCYARLHFKSMNIRTLMGVFDVYNTEHNIVYQTPDQRYFNVRFYSNELQITKSAILNFQIE	not soluble
MSAVGEFPGSLGAKVFRLNGGLPGAKVGKNTGTSVKFGESSTQALIRAAYRQVFGRDLYEGQRLSVAEIQLENGDISVREFIKRLAKSELFLKLYWAPHYVCKAIEYMHRRLLGRPTYGRQEMNQYFDIASKQGFYAVVEAMIDSKEYSDAFGEDTVPYERYLEHHHHHH	soluble
MSCGSNRGNEMKDKYDVLVIGAGPAGSIAAKTAAEKGLDVLLIEKRQEIGDPVRCAEGVNKECLKKHVEIDKRWICADLKGSCIFSPDGTKIEMAEEISGGEVGYVLERKVFDRALAEHAATAGAEVRVKTRATGLIIEDDFVKGARLMHLGKEYEVRASIVIGADGVESKVGRWAGIDTALKPVDVETCAQYLIAGADINQEYCEFYIGNEMAPGGYVWVFPKGGGKANVGIGILGSKMGKFKPRPVDYLNDFVQKKFPDARIVEMVFGGVPVSGSIEKTSVNGLMLVGDAARQSDPITGGGILNAMDAGKLAGEAAYEAISAGDVSVVKLEEVYEKKWRDTVGHDIDMSLIVKNCFINLTDDDLDSLAHSLKDVKFERMSLLDLLQALFKANKKLLWDLRVLFKDAAKEVIKNKTLEHHHHHH	soluble
MSDDGGFLSSQSSRELTEDDHEKLAKQTSISDFKRNKLEIDARKNWDKFYHRNKNNFFKDRNWSAEDLKMMCPDIDFEKEISYLEAGCGVGNMLFPLVAEIPNLKLFAFDFSDNAVKLLEERAKELELSVATSVVDLSIPSVSSPFEEQVDLATLIFVLSAIHPEKHQISAENVRKMIKIGGSVVVRDYGINDHAMIRFGREARISDRFYVRQDGTRAYYFDLNELSEVFEKSGFRCVRKEYLHRMTVNHQKGLKAPRIFVQARFIRES	not soluble
MSDFVPETEENEEESQKIDEIHEIPAQAIIIDQSFSRRFLNNKWYGKYGEDGDLLEHIDEDWEPVGLDEVEFLSQLWFEQEDQEKKAHRHYDWDEEKKEWVPKAKQEEVNEDFIAEYQANYGVQYDDIYKKMDEELQEKAAKAQKEDEEKKEKKRKKKVGLGAGEDAKEGWLDLGDKVHAVYVSNLPEDITDEEFQKFMSKCGVIQPDIRTNKPKCKLYREENGKLKGDGRCCYIKKESVELACNILDGANLNGREVKVEEARFEMKGDFDPARKRRKLTAAQKKRYMEQQNKIFEWTPDKPRNYRPKSDCTVIVKNLFTQEMMNKNAALMLDLKEEMTQSCQKYGIVKKVVVYANHPDGVVSVTFPTTEESDMAVKYLHGRVVDGRKLTAELWDGRTKFKVEETEEDEEKRRKEYEKYIEGGSSETKEESDDDDDDEAEDN	not soluble
MSDGETAVIQSLAPGPIDGVSYPLKMVYCGQCSMPPEYCDYSGQTDVCRAWATQNAPELLEGLEISDEPAADGDEKKKQKRGGKGSKTGAAAAQAAASGGKKKGGGPQKVTLQREPRGKKSVTVIKGLATFDIDLKVASKLFAQKFACGSSVTGADEIVIQGDVKDDLLDLIPEKWKQVTDEQIDDLGDKKR	soluble
MSDGSDDDTNNDGNYCKNVSYNFLIQRLAEVSNRKCLLLPKKKNRVDYISIMQTAEFYPELVNSSPPLEPGFTSCEVFVVDKKVDKDTLHLDNFSPYHIGATRRTLERQHSYFYRVNESGNFVPAIKTNGTHILRILVSILGSCPALNRKIYRMVKIESQNKNCLPSLIVYTFEPGHEIPKPNAPAILRRQTSDEIQKILNIPGTSFSQAHSEAVLNRFYDDLPIRDEASDQKRARYSIESTSSTNNQLNEINSFVVPKFEGRQESEQLFRDVKVEQFEESAEISINNRALSPHIQPSKTSVVNRPNQQNRKFQNYDMFSAGVISTATVPAPMFHPHITPIADLKDDDGYDPEELTQRNKLASLYRLVDLFRWSQGIYNHITVRVSTDPDEILINAFGQLYSEVSASSLIKVDLDGTVIDGGSTNFGVNQAGYVLHSAIHNGRPEVKCVVHLHHPSVVAVSAQKCGLLPISQESMIVGDVGYHEYRGILIDEAERALLVRDLGDRNVMILRNHGFVVCGESIEHALSLTYHLIIACETQIRTVPGGNTDNVHFPAQSAIKQVYKVASQGGGGVNRQNGHVNSMQWKKGELEWQAYMRQLDAQGYVTGNVPN	not soluble
MSDHAEEHASINTKKTVENITDVRKTAKTSIDWTKPSGGEYPDIKQKHVWIDVNVKEQKAYIKEGSNTIYTMMISSGLDQTKDDATPKGTFYVEPERGEWFFSEGYQEGAEYWVSWKNHGEFLFHSVPMTKDQKVIKTEAEKLGTKVSHGCIRLTIPDAKWVYENIPEHTKVVISLEHHHHHH	not soluble
MSDKRETRIKSVQNLAPVYNVRDDAKTRRRVALTQMLGRAYNQFNAGDDAAAEKLLEEVLRQDRSSIDAWTLRATIYSKRGDVVHSGEYYRKAAQLAPQRGDVLNNYGAWLCANGYPAEALVWFERAMADPAYGEQPGTLANSGGCALQAGQRDRADHDLRRALELDPSNAYALESMARNEYDKHRYFEARAFSERRLATTVPATASVLKLAIQIEQELGDRAAASRYQQRLVKEFPETVAVEPRG	soluble
